Measured values reported in US20100184663A1 (UNIVERSITY OF UTAH RESEARCH FOUNDATION, published 2010).
Bridge positions count the residues as written; N and C are the ends. Square brackets hold non-standard residues; d marks the D form. Ends that are not written are not given here. I, II: the chains in the order shown.

Experiments:
Assay in all cases: cell-based or functional assay
HIV-1 gp41 (HXB2 strain) [1] = biological target: T1, HIV-1 gp41 (HXB2 strain) (HIV-1 HXB2, UniProt P04578 512-856)
HIV-1 gp41 (HXB2 strain) [2] = biological target: T1, HIV-1 gp41 (HXB2 strain); remark: listed apart in the source
HIV-1 gp41 (JRFL strain) = HIV-1 gp41 (JRFL strain) (HIV-1 JRFL)

| Binder | IC50 (HXB2), single-cycle viral infectivity assay (HIV-1 gp41 (HXB2 strain) [1]) [nM] | IC50 (HXB2), pseudovirion entry (HIV-1 gp41 (HXB2 strain) [2]) [nM] | IC50 (JRFL), pseudovirion entry (HIV-1 gp41 (JRFL strain)) [nM] |
| --- | --- | --- | --- |
| Ac-[dK]G[dA][dC][dD][dY][dK][dE][dW][dQ][dW][dL][dC][dA][dA]-NH2 (disulfide 4-13 (inferred)) [PIE8] | 1680 |  |  |
| C0C(PIE7-GK)3 (disulfide I:3-I:12, II:3-II:12 (inferred); also: trimer: two chain 1 copies joined via C-terminal Lys by zero length spacers to the C-terminal Lys of central chain 2) peptide 1: G[dA][dC][dD][dY][dP][dE][dW][dQ][dW][dL][dC][dA][dA]G[dK] peptide 2: G[dA][dC][dD][dY][dP][dE][dW][dQ][dW][dL][dC][dA][dA]G[dK][dK] |  | 0.117 | 16.1 |
| Ac-[dH][dP][dC][dD][dY][dP][dE][dW][dQ][dW][dL][dC][dR][dL]G[dK]-NH2 (disulfide 3-12 (inferred)) [PIE14] |  | 33.1 | 1050 |
| Ac-[dK]G[dA][dC][dD][dY][dP][dE][dW][dR][dW][dL][dC][dA][dA][dA]-NH2 (disulfide 4-13 (inferred)) [PIE2-AAA] | 1440 |  |  |
| Ac-[dK]G[dA][dC][dD][dY][dP][dE][dW][dQ][dW][dL][dC][dA][dA]G[dK]-NH2 (disulfide 4-13 (inferred)) [K-PIE7-GK] |  |  | 14800 |
| [dK]G[dA][dC][dD][dY][dP][dE][dW][dQ][dW][dL][dC][dA][dA] (disulfide 4-13 (inferred); also: dimer joined N- to C-terminus by PEG5 spacer) [N5C(PIE7)2] |  | 0.575 | 300 |
| G[dA][dC][dD][dY][dP][dE][dW][dQ][dW][dL][dC][dA][dA]G[dK] (disulfide 3-12 (inferred); also: dimer joined C- to C-terminus by PEG9 spacer on C-terminal Lys) [C9C(PIE7-GK)2] |  | 0.354 | 215 |
| Ac-G[dA][dC][dD][dY][dP][dE][dW][dQ][dW][dL][dC][dA][dA]G[dK][dK]-NH2 (disulfide 3-12 (inferred)) [PIE7-GKK] |  | 382 | 19100 |
| Ac-G[dA][dC][dD][dY][dP][dE][dW][dQ][dW][dL][dC][dA][dA]G[dK]-NH2 (disulfide 3-12 (inferred)) [PIE7-GK] |  | 389 | 15800 |
| [dK]G[dA][dC][dD][dY][dP][dE][dW][dQ][dW][dL][dC][dA][dA] (disulfide 4-13 (inferred); also: dimer joined N- to N-terminus by zero length spacer) [N0N(PIE7)2] |  | 0.801 | 1090 |
| Ac-[dH][dA][dC][dD][dY][dP][dE][dW][dQ][dW][dL][dC][dE][dL]G[dK]-NH2 (disulfide 3-12 (inferred)) [PIE15] |  | 66.7 | 1450 |
| [dH][dP][dC][dD][dY][dP][dE][dW][dQ][dW][dL][dC][dK][dL]G[dK] (disulfide 3-12 (inferred); also: dimer crosslinked via internal Lys with PEG5 linker) [PEG5-(PIE13)2] |  |  | 15.1 |
| Ac-[dH][dP][dC][dD][dY][dP][dE][dW][dQ][dW][dL][dC][dK][dL]G[dK]-NH2 (disulfide 3-12 (inferred)) [PIE13] |  | 41.3 | 1470 |
| [dK]G[dA][dC][dD][dY][dP][dE][dW][dQ][dW][dL][dC][dA][dA] (disulfide 4-13 (inferred); also: dimer joined N- to C-terminus by zero length spacer) [N0C(PIE7)2] |  | 0.534 | 402 |
| Ac-[dK][dK]G[dA][dC][dE][dL][dL]G[dW][dE][dW][dA][dW][dL][dC][dA][dA]-NH2 (disulfide 5-16 (inferred)) [D10-p5] | 9510 |  |  |
| [dH][dP][dC][dD][dY][dP][dE][dW][dQ][dW][dL][dC][dE][dL]G[dK] (disulfide 3-12 (inferred); also: dimer joined C- to C-terminus by PEG5 spacer) [C5C(PIE12)2] |  |  | 14.2 |
| [dK]G[dA][dC][dD][dY][dP][dE][dW][dQ][dW][dL][dC][dA][dA] (disulfide 4-13 (inferred); also: dimer joined N- to N-terminus by PEG5 spacer) [N5N(PIE7)2] |  | 1.13 | 1410 |
| G[dA][dC][dD][dY][dP][dE][dW][dQ][dW][dL][dC][dA][dA]G[dK] (disulfide 3-12 (inferred); also: three peptides attached directly to central scaffold TSAT, site not given here) [PIE7-GK short claw] |  | 0.234 | 86.6 |
| G[dA][dC][dD][dY][dP][dE][dW][dQ][dW][dL][dC][dA][dA]G[dK] (disulfide 3-12 (inferred); also: dimer joined C- to C-terminus by PEG5 spacer on C-terminal Lys) [C5C(PIE7-GK)2] |  | 0.355 | 203 |
| Ac-G[dA][dC][dD][dY][dP][dE][dW][dQ][dW][dL][dC][dA][dA]G[dK]-NH2 (disulfide 3-12 (inferred); also: PEG4 attached at the C-terminus, order with amide not given here) [PIE7-GK-PEG4] |  | 351 | 13100 |
| Ac-[dH][dP][dC][dD][dY][dP][dE][dW][dQ][dW][dL][dC][dE][dL]G[dK]-NH2 (disulfide 3-12 (inferred)) [PIE12] |  |  | 578 |
| [dK]G[dA][dC][dD][dY][dP][dE][dW][dQ][dW][dL][dC][dA][dA] (disulfide 4-13 (inferred); also: trimer, N-termini joined by PEG9 spacers) [N9N(PIE7)3] |  | 0.25 | 220 |
| G[dA][dC][dD][dY][dP][dE][dW][dQ][dW][dL][dC][dA][dA]G[dK] (disulfide 3-12 (inferred); also: three peptides attached to central scaffold LC-TSAT (six-atom spacer), site not given here) [PIE7-GK long claw] |  | 0.124 | 20.6 |
| [dK]G[dA][dC][dD][dY][dP][dE][dW][dQ][dW][dL][dC][dA][dA] (disulfide 4-13 (inferred); also: dimer joined N- to C-terminus by PEG9 spacer) [N9C(PIE7)2] |  | 0.329 | 313 |
| Ac-[dK]G[dA][dC][dD][dY][dP][dE][dW][dR][dW][dL][dC][dA][dA]-NH2 (disulfide 4-13 (inferred)) [PIE2] | 1320 |  |  |
| [dH][dP][dC][dD][dY][dP][dE][dW][dQ][dW][dL][dC][dE][dL]G[dK] (disulfide 3-12 (inferred); also: trimer, C-termini joined by PEG5 spacers) [C5C(PIE12)3] |  |  | 2.77 |
